Laboratory results reported in patent publication US20090270318A1.
Values joined by “and” are separate entries in the source; they are usually repeats but may differ in a detail not shown here. Equal entries are not always repeated.

Assays:
[1] = biological target: CXCL8 receptors on bovine peripheral blood neutrophils; assay: 1000 ng/ml biotCXCL8 on medium-treated bovine neutrophils; streptavidin-enzyme and ABTS; ELISA plate reader
[2] = biological target: CXCL8 receptors on bovine peripheral blood neutrophils; assay: displacement of 20 pM 125I-CXCL8 from 10^6 bovine neutrophils, 45 min on ice
[3] = biological target: CXCL8 receptors on bovine peripheral blood neutrophils; assay: biotCXCL8 binding inhibition on bovine neutrophils; 10 ng/ml unlabeled CXCL8 2 h at 4 C, wash, then 1 ug/ml biotCXCL8; cell ELISA
[4] = biological target: CXCL8 receptors on bovine peripheral blood neutrophils; assay: cell-based or functional assay
[5] = biological target: CXCL8 receptors on bovine peripheral blood neutrophils; assay: displacement of 20 pM 125I-CXCL8 from bovine neutrophils; reference is unlabeled wildtype CXCL8
[6] = biological target: CXCL8 receptors on bovine peripheral blood neutrophils; assay: biotCXCL8 binding inhibition on bovine neutrophils; 10 ng/ml analogue 2 h at 4 C, wash, then 1 ug/ml biotCXCL8; cell ELISA

biotinylated CXCL8 (from UniProt P79255 23-101) (ligand)
OD405 [1]: 0.5 to 0.6 OD405

bovine CXCL8 (wild type, unlabeled) (from UniProt P79255 23-101) (ligand)
IC50 [2]: 120 pM
percent of ^biotCXCL8 binding blocked [3]: 30%

B1: bovine CXCL8(3-74)K11R/G31P (ligand)
chain: TELRCQCIRTHSTPFHPKFIKELRVIESPPHCENSEIIVKLTNGNEVCLNPKEKWVQKVVQVFVKRAEKQDP
IC50, inhibition of bovine neutrophil chemotaxis to 1 µg/ml (129 nM) CXCL8 [4]: 110 pM
agonist activity: chemotaxis of bovine neutrophils to 100 ng/ml analogue, as percent of the response to 1 ng/ml CXCL8 [4]: 13.9%
agonist activity: chemotaxis of bovine neutrophils to 100 ng/ml analogue, as percent of the response to 100 ng/ml CXCL8 [4]: 5.4%
concentration for complete blocking of bovine neutrophil chemotaxis to 1 µg/ml CXCL8 [4]: 10 nM
concentration for complete inhibition of bovine neutrophil chemotaxis to human CXCL5, CXCL1 or CXCL8 [4]: 3 nM and 20 nM
concentration reducing bovine neutrophil chemotaxis to 1 ng/ml hCXCL1 to 50% [4]: 0.26 nM
concentration reducing bovine neutrophil chemotaxis to 1 ng/ml hCXCL5 to 50% [4]: 0.06 nM
concentration reducing bovine neutrophil chemotaxis to 10 ng/ml hCXCL8 by 50% [4]: 0.04 nM
reduction of bovine neutrophil chemotactic response to 1 µg/ml (129 nM) CXCL8 by 12.9 pM analogue [4]: 33%
IC50 [2]: 4 pM
fold more effective than wildtype CXCL8 in inhibiting 125I-CXCL8 binding [5]: 100 fold
percent of ^biotCXCL8 binding blocked [6]: 95%

B2: bovine CXCL8(3-74)K11R/P32G (ligand)
chain: TELRCQCIRTHSTPFHPKFIKELRVIESGGHCENSEIIVKLTNGNEVCLNPKEKWVQKVVQVFVKRAEKQDP
agonist activity: chemotaxis of bovine neutrophils to 100 ng/ml analogue, as percent of the CXCL8 response [4]: 38.3%
percent of ^biotCXCL8 binding blocked [6]: 48%
